How the values were obtained:
[1] = molecular target: H296-H296-H296-HT; experiment: ELISA; H296-H296-H296-HT coated at 10 ug/mL; HRP-labeled FNH3-8, ABTS; blank subtracted
[2] = molecular target: H296-H296-HT; experiment: ELISA; H296-H296-HT coated at 1 ug/mL; HRP-labeled FNH3-8, ABTS; blank subtracted
[3] = molecular target: H271-H296; experiment: ELISA; H271-H296 coated at 20 ug/mL; HRP-labeled FNH3-8, ABTS; blank subtracted
[4] = molecular target: H296-H271; experiment: ELISA; H296-H271 coated at 5 ug/mL; HRP-labeled FNH3-8, ABTS; blank subtracted
[5] = molecular target: H296-H296 (modified fibronectin fragment in which two H-296's are connected); experiment: ELISA as in Example 34; H296-H296 coated at 25 ug/mL in PBS; HRP-labeled FNH3-8
[6] = molecular target: H-296, a polypeptide comprising a heparin binding domain and a CS-1 domain of fibronectin (Homo sapiens (Human)) (UniProt P02751); experiment: ELISA; H-296 coated at 25 ug/mL in 0.2 M phosphate buffer pH 7.4; HRP-labeled FNH3-8, ABTS
[7] = molecular target: H-296, a polypeptide comprising a heparin binding domain and a CS-1 domain of fibronectin (Homo sapiens (Human)) (UniProt P02751); experiment: ELISA; H-296 coated at 50 ug/mL in 0.2 M phosphate buffer pH 7.4; HRP-labeled FNH3-8, ABTS
[8] = molecular target: H-296, a polypeptide comprising a heparin binding domain and a CS-1 domain of fibronectin (Homo sapiens (Human)) (UniProt P02751); experiment: ELISA; H-296 coated at 50 ug/mL in 0.2 M phosphate buffer pH 6.8; HRP-labeled FNH3-8, ABTS
[9] = molecular target: CH-296, a polypeptide comprising a cell binding domain, a heparin binding domain and a CS-1 domain of fibronectin (Homo sapiens (Human)) (UniProt P02751); experiment: ELISA; CH-296 coated at 25 ug/mL; HRP-labeled FNH3-8, ABTS; blank subtracted
[10] = molecular target: H296-H296 (modified fibronectin fragment in which two H-296's are connected); experiment: ELISA as in Example 34; H296-H296 coated at 12.5 ug/mL in PBS; HRP-labeled FNH3-8
[11] = molecular target: H296-H271; experiment: ELISA; H296-H271 coated at 11 ug/mL; HRP-labeled FNH3-8, ABTS; blank subtracted
[12] = molecular target: H-296, a polypeptide comprising a heparin binding domain and a CS-1 domain of fibronectin (Homo sapiens (Human)) (UniProt P02751); experiment: ELISA; H-296 coated at 50 ug/mL in 0.2 M acetate buffer pH 4.4; HRP-labeled FNH3-8, ABTS
[13] = molecular target: H-296, a polypeptide comprising a heparin binding domain and a CS-1 domain of fibronectin (Homo sapiens (Human)) (UniProt P02751); experiment: ELISA; H-296 coated at 25 ug/mL in 0.2 M acetate buffer pH 5.0; HRP-labeled FNH3-8, ABTS
[14] = molecular target: H-296, a polypeptide comprising a heparin binding domain and a CS-1 domain of fibronectin (Homo sapiens (Human)) (UniProt P02751); experiment: ELISA as in Example 34; H-296 coated at 100 ug/mL in pH 5.6 acetate buffer; HRP-labeled FNH3-8
[15] = molecular target: H296-H296-H296-HT; experiment: ELISA; H296-H296-H296-HT coated at 4 ug/mL; HRP-labeled FNH3-8, ABTS; blank subtracted
[16] = molecular target: H296-H296-HT; experiment: ELISA; H296-H296-HT coated at 0.5 ug/mL; HRP-labeled FNH3-8, ABTS; blank subtracted
[17] = molecular target: H-296, a polypeptide comprising a heparin binding domain and a CS-1 domain of fibronectin (Homo sapiens (Human)) (UniProt P02751); experiment: ELISA; H-296 coated at 25 ug/mL in 0.2 M acetate buffer pH 4.4; HRP-labeled FNH3-8, ABTS
[18] = molecular target: H-296, a polypeptide comprising a heparin binding domain and a CS-1 domain of fibronectin (Homo sapiens (Human)) (UniProt P02751); experiment: ELISA; H-296 coated at 50 ug/mL in 0.2 M phosphate buffer pH 6.2; HRP-labeled FNH3-8, ABTS
[19] = molecular target: H296-H296 (modified fibronectin fragment in which two H-296's are connected); experiment: ELISA as in Example 34; H296-H296 coated at 1.563 ug/mL in PBS; HRP-labeled FNH3-8
[20] = molecular target: H296-H296-HT; experiment: ELISA; H296-H296-HT coated at 3 ug/mL; HRP-labeled FNH3-8, ABTS; blank subtracted
[21] = molecular target: H296-H271; experiment: ELISA; H296-H271 coated at 13 ug/mL; HRP-labeled FNH3-8, ABTS; blank subtracted
[22] = molecular target: H271-H296; experiment: ELISA; H271-H296 coated at 10 ug/mL; HRP-labeled FNH3-8, ABTS; blank subtracted
[23] = molecular target: H271-H296; experiment: ELISA; H271-H296 coated at 18 ug/mL; HRP-labeled FNH3-8, ABTS; blank subtracted
[24] = molecular target: H271-H296; experiment: ELISA; H271-H296 coated at 12 ug/mL; HRP-labeled FNH3-8, ABTS; blank subtracted
[25] = molecular target: H-296, a polypeptide comprising a heparin binding domain and a CS-1 domain of fibronectin (Homo sapiens (Human)) (UniProt P02751); experiment: ELISA as in Example 34; H-296 coated at 200 ug/mL in pH 5.6 acetate buffer; HRP-labeled FNH3-8
[26] = molecular target: H296-H271; experiment: ELISA; H296-H271 coated at 9 ug/mL; HRP-labeled FNH3-8, ABTS; blank subtracted
[27] = molecular target: H296-H296-HT; experiment: ELISA; H296-H296-HT coated at 4 ug/mL; HRP-labeled FNH3-8, ABTS; blank subtracted
[28] = molecular target: H-296, a polypeptide comprising a heparin binding domain and a CS-1 domain of fibronectin (Homo sapiens (Human)) (UniProt P02751); experiment: ELISA; H-296 coated at 50 ug/mL in 0.2 M acetate buffer pH 3.8; HRP-labeled FNH3-8, ABTS

Sequence of H271-H296 (chain, as listed by the source limits assumed): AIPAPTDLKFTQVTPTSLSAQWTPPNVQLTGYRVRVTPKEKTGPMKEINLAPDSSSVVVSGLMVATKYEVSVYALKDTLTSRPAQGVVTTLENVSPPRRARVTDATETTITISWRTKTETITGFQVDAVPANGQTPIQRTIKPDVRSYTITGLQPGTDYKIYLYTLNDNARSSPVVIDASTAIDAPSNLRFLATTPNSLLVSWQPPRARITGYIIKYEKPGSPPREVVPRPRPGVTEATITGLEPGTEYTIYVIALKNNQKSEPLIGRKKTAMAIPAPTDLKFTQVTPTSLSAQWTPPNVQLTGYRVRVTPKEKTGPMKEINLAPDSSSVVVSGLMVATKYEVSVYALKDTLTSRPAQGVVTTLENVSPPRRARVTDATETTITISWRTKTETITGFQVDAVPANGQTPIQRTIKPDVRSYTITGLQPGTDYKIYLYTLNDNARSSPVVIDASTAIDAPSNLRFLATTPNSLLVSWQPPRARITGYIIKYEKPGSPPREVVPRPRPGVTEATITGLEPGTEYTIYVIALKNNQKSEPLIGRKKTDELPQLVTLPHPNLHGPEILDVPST
Sequence of H296-H271 (chain, as listed by the source limits assumed): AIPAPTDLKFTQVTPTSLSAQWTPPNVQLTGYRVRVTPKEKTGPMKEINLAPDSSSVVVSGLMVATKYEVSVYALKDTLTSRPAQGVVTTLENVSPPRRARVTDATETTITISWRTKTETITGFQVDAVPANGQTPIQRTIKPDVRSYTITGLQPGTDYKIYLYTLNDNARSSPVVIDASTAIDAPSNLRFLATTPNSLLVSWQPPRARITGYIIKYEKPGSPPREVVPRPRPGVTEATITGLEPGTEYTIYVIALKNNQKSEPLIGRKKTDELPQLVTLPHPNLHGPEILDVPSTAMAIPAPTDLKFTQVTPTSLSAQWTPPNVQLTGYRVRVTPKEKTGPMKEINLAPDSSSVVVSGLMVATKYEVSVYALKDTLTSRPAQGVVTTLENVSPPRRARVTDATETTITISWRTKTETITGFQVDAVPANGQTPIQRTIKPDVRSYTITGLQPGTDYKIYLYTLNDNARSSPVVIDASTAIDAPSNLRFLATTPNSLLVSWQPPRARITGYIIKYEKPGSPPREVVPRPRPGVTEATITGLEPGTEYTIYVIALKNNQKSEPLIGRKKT
Sequence of H296-H296-HT (chain, as listed by the source limits assumed): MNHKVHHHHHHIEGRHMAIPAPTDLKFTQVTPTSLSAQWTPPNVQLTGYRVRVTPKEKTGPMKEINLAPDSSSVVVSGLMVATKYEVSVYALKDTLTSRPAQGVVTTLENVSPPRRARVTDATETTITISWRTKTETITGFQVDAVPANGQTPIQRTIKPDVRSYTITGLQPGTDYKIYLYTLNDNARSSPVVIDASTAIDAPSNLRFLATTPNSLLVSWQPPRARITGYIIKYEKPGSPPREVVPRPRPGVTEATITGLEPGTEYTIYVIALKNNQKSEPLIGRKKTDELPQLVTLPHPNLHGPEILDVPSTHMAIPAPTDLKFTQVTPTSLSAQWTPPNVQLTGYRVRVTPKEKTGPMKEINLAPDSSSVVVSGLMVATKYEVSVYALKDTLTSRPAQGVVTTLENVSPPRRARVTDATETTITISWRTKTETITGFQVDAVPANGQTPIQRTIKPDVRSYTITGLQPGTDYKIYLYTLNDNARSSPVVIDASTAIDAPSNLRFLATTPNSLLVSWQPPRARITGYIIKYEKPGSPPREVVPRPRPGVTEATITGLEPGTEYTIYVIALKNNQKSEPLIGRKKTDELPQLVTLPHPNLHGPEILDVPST
Sequence of H296-H296-H296-HT (chain, as listed by the source limits assumed): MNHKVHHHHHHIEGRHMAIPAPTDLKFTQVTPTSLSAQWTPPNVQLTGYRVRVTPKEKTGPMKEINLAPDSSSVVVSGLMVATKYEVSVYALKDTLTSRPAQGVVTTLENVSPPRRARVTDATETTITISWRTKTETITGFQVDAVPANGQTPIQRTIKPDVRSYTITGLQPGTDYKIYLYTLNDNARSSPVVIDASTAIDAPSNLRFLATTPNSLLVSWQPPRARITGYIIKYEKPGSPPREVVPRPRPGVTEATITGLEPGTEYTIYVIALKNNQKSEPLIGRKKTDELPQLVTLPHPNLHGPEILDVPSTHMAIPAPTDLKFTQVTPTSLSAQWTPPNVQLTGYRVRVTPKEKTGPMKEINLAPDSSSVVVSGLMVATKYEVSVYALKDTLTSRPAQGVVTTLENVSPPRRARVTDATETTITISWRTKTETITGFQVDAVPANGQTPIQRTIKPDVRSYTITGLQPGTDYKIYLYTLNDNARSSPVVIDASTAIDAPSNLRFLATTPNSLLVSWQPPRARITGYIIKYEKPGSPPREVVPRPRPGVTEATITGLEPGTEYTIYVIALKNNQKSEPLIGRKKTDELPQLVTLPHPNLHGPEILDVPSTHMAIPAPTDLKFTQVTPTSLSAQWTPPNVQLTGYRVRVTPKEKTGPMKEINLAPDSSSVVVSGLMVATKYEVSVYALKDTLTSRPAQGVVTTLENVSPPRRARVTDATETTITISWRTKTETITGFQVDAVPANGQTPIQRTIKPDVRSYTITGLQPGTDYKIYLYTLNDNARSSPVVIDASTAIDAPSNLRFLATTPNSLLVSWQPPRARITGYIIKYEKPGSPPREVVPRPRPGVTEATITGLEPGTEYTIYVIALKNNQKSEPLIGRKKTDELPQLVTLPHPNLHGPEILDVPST

FNH3-8 antibody (manufactured by TAKARA BIO INC.) labeled with HRP
405 nm (Found Value - Blank) [1]: 0.924 | 405 nm (Found Value - Blank) [2]: 0.186 | 405 nm (Found Value - Blank) [3]: 0.603 | 405 nm (Found Value - Blank) [4]: 0.448 | absorbance at 405 nm [5]: 2.02 | absorbance at 405 nm [6]: 0.08 | absorbance at 405 nm [7]: 0.169 | absorbance at 405 nm [8]: 0.167 | 405 nm (Found Value - Blank) [9]: 0.859 | absorbance at 405 nm [10]: 1.73 | 405 nm (Found Value - Blank) [11]: 0.561 | absorbance at 405 nm [12]: 0.379 | absorbance at 405 nm [13]: 0.392 | absorbance at 405 nm [14]: 0.499 | 405 nm (Found Value - Blank) [15]: 0.81 | 405 nm (Found Value - Blank) [16]: 0.033 | absorbance at 405 nm [17]: 0.428 | absorbance at 405 nm [18]: 0.244 | absorbance at 405 nm [19]: 0.732 | 405 nm (Found Value - Blank) [20]: 0.742 | 405 nm (Found Value - Blank) [21]: 0.609 | 405 nm (Found Value - Blank) [22]: 0.6 | 405 nm (Found Value - Blank) [23]: 0.61 | 405 nm (Found Value - Blank) [24]: 0.639 | absorbance at 405 nm [25]: 0.964 | 405 nm (Found Value - Blank) [26]: 0.56 | 405 nm (Found Value - Blank) [27]: 0.843 | absorbance at 405 nm [28]: 0.213
